One molecule from patent US20180016348A1 can be followed below.

Holding throughout (test): cell-based or functional assay
Assay [1] addresses neuraminidase (NA) of H1N1 A/California/07/2009 (influenza A virus H1N1 A/California/07/2009).
Assay [2] addresses neuraminidase (NA) of H3N2 A/Perth/16/2009 (influenza A virus H3N2 A/Perth/16/2009).
The target of assay [3] is neuraminidase (NA) of H5N1 A/Vietnam/1194/2004 (NIBRG-14) (influenza A virus H5N1 A/Vietnam/1194/2004 (NIBRG-14)).
For assay [4], the target named is neuraminidase (NA) of H1N1 A/Brisbane/59/2007 (influenza A virus H1N1 A/Brisbane/59/2007).

B1: CR12042 (antibody, V domains shown)
VH: EVQLVESGAEVRKPGSSVKVSCTASGDTFSSYTITWVRQAPGQGLEWMGEIIPIFGTANYAQKFQGRVTLTADESTTTAYMDLSSLRSEDTAVYYCARGPDNHSDRYFYYGMDVWGQGTTVTVSS
VL: EIVLTQSPLSLPVTPGEPASISCRSSQSLLHSTGNNYLDWYLQKPGQSPQLLIYLGSNRASGVPDRFSGSGSGTDFTLKISRVEAEDVGVYYCMQALQTPRTFGQGTKVDIK
As to B1, the IC50 of virus neutralization (VNA on MDCK cells) stood at 0.26 µg/mL in assay [1] and 5.45 µg/mL in assay [3]. The EC50 of neuraminidase inhibition (NA-XTD assay, whole virus) in assay [2] turned out to be 5.01 µg/mL; in assay [4], 0.11 µg/mL. Besides, the IC50 of virus neutralization (VNA on MDCK cells; one experiment) in assay [2] was > 100 µg/mL.
